± gives the uncertainty stated by the source.
Assay: self-splicing fitness, log relative to wild type (ln ratio); higher = more splicing; Tetrahymena group I intron in knt gene, E. coli kanamycin selection, DiMSum; sequences stand for … in CUCUCU…GGAGGGAAAAGUUAUCAGGCAUGCACCUGGUAGCUAGUCUUUAAACCAAUAGAUUGCAUCGGUUUAAAAGGCAAGACCGUCAAAUUGCGGGAAAGGGGUCAACAGCCGUUCAGUACCAAGUCUCAGGGGAAACUUUGAGAUGGCCUUGCAAAGGGUAUGGUAAUAAGCUGACGGACAUGGUCCUAACCACGCAGCCAAGUCCUAAGUCAACAGAUCUUCUGUUGAUAUGGAUGCAGUUCACAGACUAAAUGUCGGUCGGGGAAGAUGUAUUCUUCUCAUAAGAUAUAGUCGGACCUCUCCUUAAUGGGAGCUAGCGGAUGAAGUGAUGCAACACUGGAGCCGCUGGGAACUAAUUUGUAUGCGAAAGUAUAUUGAUUAGUUUUGGAGUACUCGUGGUCG
Procedure, shortened: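 Six replicate transformations of E. coli BL21(DE3) with a pET-22b(+) library were grown overnight at 37°C or 30°C. The library randomised all eight P1ex-region intron nucleotides, the intron lying in the knt kanamycin-resistance gene, and plates were LB agar with or without 25 μg/mL kanamycin plus 100 μg/mL carbenicillin, 50 μM IPTG and 0.2% rhamnose. Pooled colonies were amplicon-sequenced on an Illumina HiSeq 2500, and fitness is the DiMSum error-weighted combination of wild-type-normalised replicate fold changes, kanamycin versus none.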

In the case of ACAGAGCAAUAUUACGUGCC, the “self-splicing fitness (ln)” value (30 °C) is reported as -3.54 ± 0.46.
In the case of CCAUAGCAAUAUUACGCAAG, the “self-splicing fitness (ln)” value (30 °C) is reported as -2.84 ± 0.17 and the “self-splicing fitness (ln)” value (37 °C) is reported as -0.562 ± 0.13.
With GGAUAGCAAUAUUACGGGAC the “self-splicing fitness (ln)” value (30 °C) was -2.5 ± 0.24 and the “self-splicing fitness (ln)” value (37 °C) was -2.15 ± 0.17.
For AUCGAGCAAUAUUACGUUGC, the “self-splicing fitness (ln)” value (30 °C) was -2.95 ± 0.29 and the “self-splicing fitness (ln)” value (37 °C) was -1.7 ± 0.27.
For GAUAAGCAAUAUUACGAUCU, the “self-splicing fitness (ln)” value (30 °C) was 0.509 ± 0.17 and the “self-splicing fitness (ln)” value (37 °C) was -1.55 ± 0.19.
With UAGAAGCAAUAUUACGCACU the “self-splicing fitness (ln)” value (30 °C) was -0.642 ± 0.15 and the “self-splicing fitness (ln)” value (37 °C) was -0.846 ± 0.17.
In the case of AGGUAGCAAUAUUACGGAUG, the “self-splicing fitness (ln)” value (30 °C) is reported as -3.698 ± 0.028 and the “self-splicing fitness (ln)” value (37 °C) is reported as -2.39 ± 0.037.
For GUAUAGCAAUAUUACGAGCG, the “self-splicing fitness (ln)” value (30 °C) was -1.98 ± 0.16 and the “self-splicing fitness (ln)” value (37 °C) was -1.39 ± 0.14.
With GGUCAGCAAUAUUACGGGUU the “self-splicing fitness (ln)” value (30 °C) was -1.25 ± 0.083 and the “self-splicing fitness (ln)” value (37 °C) was -0.194 ± 0.089.
With AUAUAGCAAUAUUACGAGCG the “self-splicing fitness (ln)” value (30 °C) was -2.19 ± 0.17 and the “self-splicing fitness (ln)” value (37 °C) was -0.66 ± 0.16.
In the case of AAUUAGCAAUAUUACGACAA, the “self-splicing fitness (ln)” value (30 °C) is reported as -1.79 ± 0.21 and the “self-splicing fitness (ln)” value (37 °C) is reported as 0.209 ± 0.24.
In the case of ACGAAGCAAUAUUACGAAAG, the “self-splicing fitness (ln)” value (30 °C) is reported as -3.2 ± 0.12 and the “self-splicing fitness (ln)” value (37 °C) is reported as -2.32 ± 0.16.
For GCUUAGCAAUAUUACGUCUC, the “self-splicing fitness (ln)” value (30 °C) was -0.196 ± 0.096 and the “self-splicing fitness (ln)” value (37 °C) was 0.386 ± 0.1.
With GGCUAGCAAUAUUACGGGGG the “self-splicing fitness (ln)” value (30 °C) was -3.9 ± 0.37 and the “self-splicing fitness (ln)” value (37 °C) was -2.09 ± 0.21.
For GUGUAGCAAUAUUACGCCUA, the “self-splicing fitness (ln)” value (30 °C) was -1.92 ± 0.26 and the “self-splicing fitness (ln)” value (37 °C) was -0.813 ± 0.24.
With CCACAGCAAUAUUACGCGAA the “self-splicing fitness (ln)” value (30 °C) was -3.53 ± 0.2 and the “self-splicing fitness (ln)” value (37 °C) was -3.29 ± 0.21.
With UAUGAGCAAUAUUACGUUGC the “self-splicing fitness (ln)” value (30 °C) was -2.19 ± 0.19 and the “self-splicing fitness (ln)” value (37 °C) was -2.65 ± 0.23.
With CUGGAGCAAUAUUACGGGUG the “self-splicing fitness (ln)” value (30 °C) was -1.61 ± 0.079 and the “self-splicing fitness (ln)” value (37 °C) was -0.251 ± 0.078.
With AUGAAGCAAUAUUACGCCGG the “self-splicing fitness (ln)” value (30 °C) was -0.936 ± 0.11 and the “self-splicing fitness (ln)” value (37 °C) was 0.108 ± 0.18.
With GAACAGCAAUAUUACGAGUU the “self-splicing fitness (ln)” value (30 °C) was -2.29 ± 0.092 and the “self-splicing fitness (ln)” value (37 °C) was -0.935 ± 0.1.
In the case of GGUCAGCAAUAUUACGUUCU, the “self-splicing fitness (ln)” value (30 °C) is reported as -0.13 ± 0.1 and the “self-splicing fitness (ln)” value (37 °C) is reported as 0.22 ± 0.11.
For GCAAAGCAAUAUUACGCGCU, the “self-splicing fitness (ln)” value (30 °C) was -3.48 ± 0.23 and the “self-splicing fitness (ln)” value (37 °C) was -2.01 ± 0.18.
With AGUUAGCAAUAUUACGUCAG the “self-splicing fitness (ln)” value (30 °C) was -3.99 ± 0.29 and the “self-splicing fitness (ln)” value (37 °C) was -3.25 ± 0.19.
In the case of ACACAGCAAUAUUACGACCU, the “self-splicing fitness (ln)” value (30 °C) is reported as -0.472 ± 0.069 and the “self-splicing fitness (ln)” value (37 °C) is reported as 0.384 ± 0.092.
For AAGAAGCAAUAUUACGUCGG, the “self-splicing fitness (ln)” value (30 °C) was -0.907 ± 0.12 and the “self-splicing fitness (ln)” value (37 °C) was -1.02 ± 0.14.
With AAGUAGCAAUAUUACGAUUG the “self-splicing fitness (ln)” value (30 °C) was -3.24 ± 0.28 and the “self-splicing fitness (ln)” value (37 °C) was -0.999 ± 0.22.
With AGUCAGCAAUAUUACGUUGA the “self-splicing fitness (ln)” value (37 °C) was -3.49 ± 0.31.
In the case of CUAAAGCAAUAUUACGUUGA, the “self-splicing fitness (ln)” value (30 °C) is reported as -4.09 ± 0.23 and the “self-splicing fitness (ln)” value (37 °C) is reported as -2.6 ± 0.29.
In the case of UAUGAGCAAUAUUACGUCAU, the “self-splicing fitness (ln)” value (30 °C) is reported as -3.16 ± 0.2 and the “self-splicing fitness (ln)” value (37 °C) is reported as -2.38 ± 0.23.
For AGUCAGCAAUAUUACGCUGU, the “self-splicing fitness (ln)” value (30 °C) was -4.12 ± 0.34 and the “self-splicing fitness (ln)” value (37 °C) was -2.73 ± 0.22.
With GUGCAGCAAUAUUACGGUAA the “self-splicing fitness (ln)” value (30 °C) was -1.5 ± 0.18 and the “self-splicing fitness (ln)” value (37 °C) was 0.218 ± 0.14.
In the case of CUCCAGCAAUAUUACGCUAG, the “self-splicing fitness (ln)” value (30 °C) is reported as -3.91 ± 0.17 and the “self-splicing fitness (ln)” value (37 °C) is reported as -2.7 ± 0.2.
In the case of UUUAAGCAAUAUUACGAUUU, the “self-splicing fitness (ln)” value (30 °C) is reported as -1.92 ± 0.16 and the “self-splicing fitness (ln)” value (37 °C) is reported as -0.754 ± 0.13.
In the case of CAUUAGCAAUAUUACGCCCA, the “self-splicing fitness (ln)” value (30 °C) is reported as -2.43 ± 0.2 and the “self-splicing fitness (ln)” value (37 °C) is reported as -1.47 ± 0.24.
In the case of CGGGAGCAAUAUUACGUCUC, the “self-splicing fitness (ln)” value (30 °C) is reported as -2.33 ± 0.24.
In the case of CGAGAGCAAUAUUACGAGUG, the “self-splicing fitness (ln)” value (30 °C) is reported as -3.53 ± 0.26 and the “self-splicing fitness (ln)” value (37 °C) is reported as -0.803 ± 0.14.
With UCCCAGCAAUAUUACGCGUU the “self-splicing fitness (ln)” value (30 °C) was -1.11 ± 0.075 and the “self-splicing fitness (ln)” value (37 °C) was -0.493 ± 0.089.
For CCUUAGCAAUAUUACGUAAC, the “self-splicing fitness (ln)” value (30 °C) was -4.41 ± 0.22 and the “self-splicing fitness (ln)” value (37 °C) was -2.41 ± 0.18.
With CCGUAGCAAUAUUACGUUAG the “self-splicing fitness (ln)” value (30 °C) was -2.22 ± 0.14 and the “self-splicing fitness (ln)” value (37 °C) was -0.971 ± 0.14.
In the case of UAGCAGCAAUAUUACGUUGG, the “self-splicing fitness (ln)” value (30 °C) is reported as -2.36 ± 0.089 and the “self-splicing fitness (ln)” value (37 °C) is reported as -2.22 ± 0.12.
For CAGCAGCAAUAUUACGGCCA, the “self-splicing fitness (ln)” value (30 °C) was -0.605 ± 0.091 and the “self-splicing fitness (ln)” value (37 °C) was -0.22 ± 0.11.
With CAACAGCAAUAUUACGACAU the “self-splicing fitness (ln)” value (30 °C) was -2.026 ± 0.012 and the “self-splicing fitness (ln)” value (37 °C) was -1.04 ± 0.032.
In the case of UUUUAGCAAUAUUACGACCG, the “self-splicing fitness (ln)” value (30 °C) is reported as 1.81 ± 0.28 and the “self-splicing fitness (ln)” value (37 °C) is reported as -1.19 ± 0.4.

— the supplement of paper PMC7877785
